Numbering of substitutions follows the chain as printed. Bridges are numbered along the chain shown (N, C = ends). Where no end group is shown, it is not given here. minicard = not defined here
T1: LKMECLNFIRCHTPY (linker 5-11 via 1,3‑bis(bromomethyl)‑benzene (inferred); reading uncertain)
T1 construct: 15-mer looped Pepscan peptide derived from human CD20, Cys put in at two positions
T1 peptide: Ac-LKMECLNFIRCHTPY-minicard

T2: IYAPIAV (also: covalently linked to polyethylene card)
T2 construct: 7-mer Pepscan peptide derived from human CD20 (A in place of the C of IYAPICV)
T2 peptide: IYAPIAV

T3: GIYAPIC (also: covalently linked to polyethylene card)
T3 construct: 7-mer Pepscan peptide derived from human CD20
T3 peptide: GIYAPIC

T4: PAGIYAP (also: covalently linked to polyethylene card)
T4 construct: 7-mer Pepscan peptide derived from human CD20
T4 peptide: PAGIYAP

T5: CFIRAHTPC (linker 1-9 via 1,3‑bis(bromomethyl)‑benzene (inferred); not fully specified (C-terminus); also: covalently linked to minicard)
T5 construct: 9-mer looped Pepscan peptide derived from human CD20
T5 peptide: CFIRAHTPC

T6: CAHTPYINC (linker 1-9 via 1,3‑bis(bromomethyl)‑benzene (inferred); not fully specified (C-terminus); also: covalently linked to minicard)
T6 construct: 9-mer looped Pepscan peptide derived from human CD20
T6 peptide: CAHTPYINC

T7: MESLCFIRAHCPYIN (linker 5-11 via 1,3‑bis(bromomethyl)‑benzene (inferred); reading uncertain)
T7 construct: 15-mer looped Pepscan peptide derived from human CD20, Cys put in at two positions
T7 peptide: Ac-MESLCFIRAHCPYIN-minicard

T8: KMESCNFIRACTPYI (linker 5-11 via 1,3‑bis(bromomethyl)‑benzene (inferred); reading uncertain)
T8 construct: 15-mer looped Pepscan peptide derived from human CD20, Cys put in at two positions
T8 peptide: Ac-KMESCNFIRACTPYI-minicard

T9: CRAHTPYIC (linker 1-9 via 1,3‑bis(bromomethyl)‑benzene (inferred); not fully specified (C-terminus); also: covalently linked to minicard)
T9 construct: 9-mer looped Pepscan peptide derived from human CD20
T9 peptide: CRAHTPYIC

T10: GIYAPIA (also: covalently linked to polyethylene card)
T10 construct: 7-mer Pepscan peptide derived from human CD20 (A in place of the C of GIYAPIC)
T10 peptide: GIYAPIA

T11: CIRAHTPYC (linker 1-9 via 1,3‑bis(bromomethyl)‑benzene (inferred); not fully specified (C-terminus); also: covalently linked to minicard)
T11 construct: 9-mer looped Pepscan peptide derived from human CD20
T11 peptide: CIRAHTPYC

T12: KMECLNFIRAHCPYI (linker 4-12 via 1,3‑bis(bromomethyl)‑benzene (inferred); reading uncertain)
T12 construct: 15-mer looped Pepscan peptide derived from human CD20, Cys put in at two positions
T12 peptide: Ac-KMECLNFIRAHCPYI-minicard

T13: AGIYAPI (also: covalently linked to polyethylene card)
T13 construct: 7-mer Pepscan peptide derived from human CD20
T13 peptide: AGIYAPI

T14: IYAPICV (also: covalently linked to polyethylene card)
T14 construct: 7-mer Pepscan peptide derived from human CD20
T14 peptide: IYAPICV

T15: ICIYNAEPANPSECN (linker 2-14 via 1,3‑bis(bromomethyl)‑benzene (inferred); reading uncertain)
T15 construct: 15-mer looped Pepscan peptide derived from human CD20, Cys put in at two positions
T15 peptide: Ac-ICIYNAEPANPSECN-minicard

T16: ECANPSEKNSPSTCY (linker 2-14 via 1,3‑bis(bromomethyl)‑benzene (inferred); reading uncertain)
T16 construct: 15-mer looped Pepscan peptide derived from human CD20, Cys put in at two positions
T16 peptide: Ac-ECANPSEKNSPSTCY-minicard

T17: IPAGIYA (also: covalently linked to polyethylene card)
T17 construct: 7-mer Pepscan peptide derived from human CD20
T17 peptide: IPAGIYA

B1: 11B8 (antibody, IgG3, V domains shown)
VH: EVQLVQSGGGLVHPGGSLRLSCTGSGFTFSYHAMHWVRQAPGKGLEWVSIIGTGGVTYYADSVKGRFTISRDNVKNSLYLQMNSLRAEDMAVYYCARDYYGAGSFYDGLYGMDVWGQGTTVTVSS
VL: EIVLTQSPATLSLSPGERATLSCRASQSVSSYLAWYQQKPGQAPRLLIYDASNRATGIPARFSGSGSGTDFTLTISSLEPEDFAVYYCQQRSDWPLTFGGGTKVEIK
notes: Human monoclonal IgG3,κ from hybridoma
B2: 7D8 (antibody, IgG1, V domains shown)
VH: EVQLVESGGGLVQPDRSLRLSCAASGFTFHDYAMHWVRQAPGKGLEWVSTISWNSGTIGYADSVKGRFTISRDNAKNSLYLQMNSLRAEDTALYYCAKDIQYGNYYYGMDVWGQGTTVTVSS
VL: B1 VL with D93N, L96I, G100Q, K103R, V104L
notes: Human monoclonal IgG1,κ from hybridoma
B3: 2F2 (antibody, V domains shown)
VH: B2 VH with D15G, H30N, T57S, N77K
VL: B1 VL with D93N, L96I, G100Q, K103R, V104L
modifications: FITC- or 125I-labelled in some assays; F(ab')2 fragments in some; the letters do not carry this
notes: Human monoclonal IgG1,κ from hybridoma; also called 4C9; HuMab 2F2 (hybridoma-derived)

Target: T1, LKMECLNFIRCHTPY
Test: Pepscan ELISA, 100 µg/ml
From the text: (§1) In some cases chemical linkage of the legs of a 15-mer peptide helps to identify amino acid sequences of a potentially discontinuous epitope. […] The 9- and 15-mers were synthesized as loops and screened using credit-card format mini-PEPSCAN cards (455 peptide format/card). In all looped peptides amino acids at varied positions were replaced by a cysteine (e.g., acetyl-XCXXXXXXXXCX-minicard). The peptides were synthesized using standard Fmoc-chemistry and deprotected using TFA with scavengers. Subsequently, the deprotected peptides were reacted on the microarray with an 0.5 mM solution of 1,3-bis(bromomethyl)-benzene in ammonium bicarbonate (20 mM, pH 7.9), supplemented with acetonitrile (1:1 (v/v)). The microarrays were gently shaken in the solution for 30-60 min, while completely covered in the solution. Finally, the microarrays were washed extensively with excess of Millipore H₂O and sonicated in disrupt-buffer containing 1% sodium dodecylsulfate, 0.1% β-mercaptoethanol, in PBS (pH 7.2) at 70° C. for 30 min, followed by sonication in millipore H₂O for another 45 min. Subsequently, the microwells were ready for screening in an ELISA-assay.
(§2) […] After washing, the peptides were incubated with anti-human antibody peroxidase (dilution 1:1000, 1 hour, 25° C.), and after washing the peroxidase substrate, 2,2′-azino-di-3-ethylbenzthiazolin sulfonate and 2 μl/ml 3% H₂O₂ were added. After one hour, the color development was measured. The color development of the ELISA was quantified with a CCD-camera and an image processing system.

Row | Binder | OD (absorbance)
1 | B1 | 738 OD
2 | B2 | 41 OD
3 | B3 | 87 OD

Target: T2, IYAPIAV
Test: Pepscan ELISA, 100 µg/ml
From the text: as §1, §2

Row | Binder | OD (absorbance)
4 | B1 | 654 OD
5 | B2 | 58 OD
6 | B3 | 76 OD

Target: T3, GIYAPIC
Test: Pepscan ELISA, 100 µg/ml
From the text: as §1, §2

Row | Binder | OD (absorbance)
7 | B1 | 251 OD
8 | B2 | 64 OD
9 | B3 | 93 OD

Target: T4, PAGIYAP
Test: Pepscan ELISA, 100 µg/ml
From the text: as §1, §2

Row | Binder | OD (absorbance)
10 | B1 | 2500 OD
11 | B2 | 64 OD
12 | B3 | 85 OD

Target: T5, CFIRAHTPC
Test: Pepscan ELISA, 100 µg/ml
From the text: as §1, §2

Row | Binder | OD (absorbance)
13 | B1 | 534 OD
14 | B2 | 69 OD
15 | B3 | 114 OD

Target: T6, CAHTPYINC
Test: Pepscan ELISA, 100 µg/ml
From the text: as §1, §2

Row | Binder | OD (absorbance)
16 | B1 | 452 OD
17 | B2 | 65 OD
18 | B3 | 106 OD

Target: T7, MESLCFIRAHCPYIN
Test: Pepscan ELISA, 100 µg/ml
From the text: as §1, §2

Row | Binder | OD (absorbance)
19 | B1 | 956 OD
20 | B2 | 55 OD
21 | B3 | 65 OD

Target: T8, KMESCNFIRACTPYI
Test: Pepscan ELISA, 100 µg/ml
From the text: as §1, §2

Row | Binder | OD (absorbance)
22 | B1 | 3090 OD
23 | B2 | 52 OD
24 | B3 | 78 OD

Target: T9, CRAHTPYIC
Test: Pepscan ELISA, 100 µg/ml
From the text: as §1, §2

Row | Binder | OD (absorbance)
25 | B1 | 1600 OD
26 | B2 | 64 OD
27 | B3 | 87 OD

Target: T10, GIYAPIA
Test: Pepscan ELISA, 100 µg/ml
From the text: as §1, §2

Row | Binder | OD (absorbance)
28 | B1 | 857 OD
29 | B2 | 96 OD
30 | B3 | 96 OD

Target: T11, CIRAHTPYC
Test: Pepscan ELISA, 100 µg/ml
From the text: as §1, §2

Row | Binder | OD (absorbance)
31 | B1 | 449 OD
32 | B2 | 60 OD
33 | B3 | 92 OD

Target: T12, KMECLNFIRAHCPYI
Test: Pepscan ELISA, 100 µg/ml
From the text: as §1, §2

Row | Binder | OD (absorbance)
34 | B1 | 3000 OD
35 | B2 | 41 OD
36 | B3 | 66 OD

Target: T13, AGIYAPI
Test: Pepscan ELISA, 100 µg/ml
From the text: as §1, §2

Row | Binder | OD (absorbance)
37 | B1 | 2210 OD
38 | B2 | 73 OD
39 | B3 | 98 OD

Target: T14, IYAPICV
Test: Pepscan ELISA, 100 µg/ml
From the text: as §1, §2

Row | Binder | OD (absorbance)
40 | B1 | 313 OD
41 | B2 | 58 OD
42 | B3 | 99 OD

Target: T2, IYAPIAV
Test: Pepscan ELISA, 10 µg/ml
From the text: as §1, §2

Row | Binder | OD (absorbance)
43 | B1 | 161 OD
44 | B2 | 181 OD
45 | B3 | 62 OD

Target: T3, GIYAPIC
Test: Pepscan ELISA, 10 µg/ml
From the text: as §1, §2

Row | Binder | OD (absorbance)
46 | B1 | 99 OD
47 | B2 | 152 OD
48 | B3 | 34 OD

Target: T6, CAHTPYINC
Test: Pepscan ELISA, 10 µg/ml
From the text: as §1, §2

Row | Binder | OD (absorbance)
49 | B1 | 179 OD
50 | B2 | 174 OD
51 | B3 | 42 OD

Target: T15, ICIYNAEPANPSECN
Test: Pepscan ELISA, 10 µg/ml
From the text: as §1, §2

Row | Binder | OD (absorbance)
52 | B1 | 138 OD
53 | B2 | 192 OD
54 | B3 | 78 OD

Target: T9, CRAHTPYIC
Test: Pepscan ELISA, 10 µg/ml
From the text: as §1, §2

Row | Binder | OD (absorbance)
55 | B1 | 427 OD
56 | B2 | 188 OD
57 | B3 | 48 OD

Target: T10, GIYAPIA
Test: Pepscan ELISA, 10 µg/ml
From the text: as §1, §2

Row | Binder | OD (absorbance)
58 | B1 | 172 OD
59 | B2 | 177 OD
60 | B3 | 62 OD

Target: T16, ECANPSEKNSPSTCY
Test: Pepscan ELISA, 10 µg/ml
From the text: as §1, §2

Row | Binder | OD (absorbance)
61 | B1 | 134 OD
62 | B2 | 179 OD
63 | B3 | 68 OD

Target: T13, AGIYAPI
Test: Pepscan ELISA, 10 µg/ml
From the text: as §1, §2

Row | Binder | OD (absorbance)
64 | B1 | 251 OD
65 | B2 | 188 OD
66 | B3 | 44 OD

Target: T14, IYAPICV
Test: Pepscan ELISA, 10 µg/ml
From the text: as §1, §2

Row | Binder | OD (absorbance)
67 | B1 | 137 OD
68 | B2 | 174 OD
69 | B3 | 58 OD

Target: T17, IPAGIYA
Test: Pepscan ELISA, 10 µg/ml
From the text: as §1, §2

Row | Binder | OD (absorbance)
70 | B1 | 217 OD
71 | B2 | 164 OD
72 | B3 | 48 OD

Reference: patent publication US20040167319A1 (Genmab, published 2004)
